# In the DeepSol protein solubility set:
# Assay: soluble on expression in E. coli; label from the status in PepcDB or PDB records
row,Sequence,soluble on expression in E. coli
1,MVAQQKNLEGYVGFANLPNQVYRKSVKRGFEFTLMVVGESGLGKSTLINSLFLTDLYSPEYPGPSHRIKKTVQVEQSKVLIKEGGVQLLLTIVDTPGFGDAVDNSNCWQPVIDYIDSKFEDYLNAESRVNRRQMPDNRVQCCLYFIAPSGHGLKPLDIEFMKRLHEKVNIIPLIAKADTLTPEECQQFKKQIMKEIQEHKIKIYEFPETDDEEENKLVKKIKDRLPLAVVGSNTIIEVNGKRVRGRQYPWGVAEVENGEHCDFTILRNMLIRTHMQDLKDVTNNVHYENYRSRKLAAVTYNGVDNNKNKGQLTKSPLAQMEEERREHVAKMKKMEMEMEQVFEMKVKEKVQKLKDSEAELQRRHEQMKKNLEAQHKELEEKRRQFEDEKANWEAQQRILEQQNSSRTLEKNKKKGKIF,soluble
2,MKANKVLFITQEITPYVPESEMANMGRFLPQAIQEKGREIRTFMPKWGNVNERRNQLHEVIRLSGMNLIIDDTDHPLIIKVASIQAARMQVYFIDNDDYFQHRQMVADENGVEYKDNDERAIFYARGVLETVKKLRWCPDIIHCQGWMSAFVPLYIKKAYQDEPSFRDSKVVFSVFEDDFKSDCEGNLTEKLMLKGIEKNDVESIVKSPANYEELCKLAIAYSDGVIQNSEKVNENVMKFARESGVPVLDYQPADTYVDAFNEFYDKVWEFEKK,not soluble
3,MTWFIDRRLNGKNKSTVNRQRFLRRYKAQIKQSISEAINKRSVTDVDSGESVSIPTDDISEPMFHQGRGGLRHRVHPGNDHFIQNDRIERPQGGGGGGSGSGQGQASQDGEGQDEFVFQISKDEYLDLLFEDLALPNLKKNQHRQLNEYKTHRAGFTSNGVPANISVVRSLQNSLARRTAMTAGKRRELHALETELETISHSEPAQLLEEERLRREIAELRAKIERVPFIDTFDLRYKNYEKRPEPSSQAVMFCLMDVSGSMDQATKDMAKRFYILLYLFLSRTYKNVEVVYIRHHTQAKEVDEHEFFYSQETGGTIVSSALKLMDEVVKERYDPGQWNIYAAQASDGDNWADDSPLCHEILAKKLLPVVRYYSYIEITRRAHQTLWREYEHLQATFDNFAMQHIRDQEDIYPVFRELFQKQSANQSALEHHHHHH,soluble
4,MSLNPAYFVLLVEELKTKYLVKDICQILQVPLSTYYRWKKKDFSQSSLEKKIGQLCKAYQFTYGYRKIAALMKQEEQVGINKVQRIMQKYQWQCQVKVKKKNRPGSAYYQTENHLNRNFQASQPLEKLTTDITYLYFGDCRLYLSSIMDLYNGEIVAYSIGEKQDTELVLDTLNQLSLPEGSLLHSDQGSVYTSYEYYQCCKKKNVIRSMSRKGTPADNAPIECFHSSLKCETFYHKTAYKYAKSIVIQIVKDYIKYYNEKRIQQKLGYQSPINFRKQAEGHHHHHH,not soluble
5,MKRTGILLVNLGTPKDSSKTEVRKYLKTFLSDRRVIKIHPIIWKPILNGIILNIRPKKSAKLYQKICTENGFPLLEYTEKQMENLKNICPEVEVTIGMSYSEPSIETALDTLLSKEIEELNVIPMYPQYSGTTVGSVFDSVMNYFIKSDRIVDIKFIRSFYNNPQYIDYFSKKINEALNESPIDAIVFSYHGIPMSYVKDGDNYPKECTK,not soluble
6,MIEIKNLTLQRGLKVLLDKANATVNPGQRVGLIGKNGTGKSSLFALIKGEITQDGGDVSIPKNWRLASVSQETPDLDISALDYVLQGDAELQAFQTALRQAEAQNDGMKQAEYHAKLEE,not soluble
7,GPLGSMDSPPEGYRRNVGICLMNNDKKIFAASRLDIPDAWQMPQGGIDEGEDPRNAAIRELREETGVTSAEVIAEVPYWLTYDFPPKVREKLNIQWGSDWKGQAQKWFLFKFTGQDQEINLLGDGSEKPEFGEWSWVTPEQLIDLTVEFKKPVYKEVLSVFAPHL,soluble
8,MNYILGTILESKITGVEKAQINRLKLFKQHGISSKCVYVKWNPYSYTYAKQHQIENDVFTMYDYFQKAINYKKTKQVNWIQYWEKSCRYTLKFVENSNDVRIYDEEQFVMYAHFLDKQYHQLNYVNYFDHKRRKVKRELYDGRGFLSCSRILGEGQRIVLENYYTPNGEIVIQKYFDDIKGKNTLTKVILNEDQHQQFFDTEDELVQYFLHQLCKNNDQIILDRPHELGNVIAGLNQSIPVIVVLHSTHLSGAGNGIKSFYKTVFNNLTRYKAIVVSTEKQCQDISQYIENKIPVINIPVGYVANLKYQFDINQKEKNHIISIARLVENKQIKHQIEVIKQLVTKHPNIQLNIYGHGNGLSEYRQLVEDYHLSEHVKFHGFKTHINEEIAKAELMLSTSKMEGFGLAILESLSVGTPVISYDVDYGPSELIQDGFNGYLVPQGDINQMVEKVDQLLNNTQKLQQFSINSIESAQQYNATTISTKWQNILN,not soluble
9,MKVAEIIVVEGKDDTRRIQEVVAADTIETIGSAINDEILTQIEHAQETRGVIIFTDPDYSGEKIRKTIMEVVPDAKHAFLSRKVAVPKKNGGSLGVEHASDEAIIEALKKVVTPVQADEDYQEIPRQTLVEYGLIAGANAKKYRELLGDDLRIGYTNSKQLVKRLSMFRITEAELKESMTRILKELANEE,not soluble
10,YTDKYDKINLQEILENKRLLESYMDCVLGKGKCTPEGKELKDHLQEALETGCEKCTEAQEKGAETSIDYLIKNELEIWKELTAHFDPDGKWRKKYEDRAKAKGIVIPE,soluble
11,MTLMIDENFKKQLAQRRERVEDLFYFENSKEIGRGTYGLVYKAVPKKQNGQFPNKEYALKMIEGQGFSMSACREIALFRELRHPNLICLQRVFLTNEKKVWLLLDYAEHDLWHVIKHHRTAKSKKVPIMVPRNMVKNILFQILSGMHYLHSNWVLHRDLKPANILLMGDGPPDMRGRVKIADLGFSRIYANPLKPMAELDPVVVTFWYRAPELLLGAKHYTKAIDVWAIGCIFAELLTAEPLFFCKEEDIKAQNPYHYDQVKRIFHLLGYPSDADWPDMKKMPDHQRLLSDARNEGTPIQTFPNSLHRYFDKWKINSQSSPYRLLVKLLTVDPTKRVSCEEAMNDIYFRKMERPPRETDDVFNKYPIPYAKKEQQMTVAPDQAQQQHQQQQVQMQQQPQMGQQQMMGQPQMVQPQMGQPPMGGAHPGVVAPDGHPHQMMQQQQHPQQHHMQYQGMHDPMQGGMDEGPQAKMMRMGNVPVGRYAPMPPPYGAPQDYHPQQGPPMVQMMQQPGPSGYYPQRPGQPTGAVPGPGPQGYMNPQMGMQMGMRAPGVPPQGYMPGRGMAPPQMGQQQPGPNQQQQQQWQQQYHR,not soluble
12,MEKNWYVVHTYSGYENKVKANLEKRVESMGMQDKIFRVVVPEEEETDIKNGKKKVVKKKVFPGYVLVEIVMTDDSWYVVRNTPGVTGFVGSAGSGSKPTPLLPGEAETILKRMGMDERKTDIDFELKETVKVIDGPFANFTGSIEEIDYDKSKVKVFVNMFGRETPVELEFTQIDKL,soluble
13,MNYPAEPFRIKSVETVSMISRDERVKKMQEAGYNTFLLNSKDIYIDLLTDSGTNAMSDKQWAGMMIGDEAYAGSENFYHLEKTVKELFGFKHIVPTHQGRGAENLLSQLAIKPGQYVAGNMYFTTTRFHQEKNGATFVDIVRDEAHDASLNLPFKGDIDLNKLATLIKEKGAENIAYICLAVTVNLAGGQPVSMANMRAVHEMASTYGIKIFYDATRCVENAYFIKEQEAGYENVSIKDIVHEMFSYADGCTMSGKKDCLVNIGGFLCMNDEEMFSAAKELVVVYEGMPSYGGLAGRDMEAMAIGLREAMQYEYIEHRVKQVRYLGDKLREAGVPIVEPTGGHAVFLDARRFCPHLTQDQFPAQSLAASIYMETGVRSMERGIVSAGRSKETGENHRPKLETVRLTIPRRVYTYAHMDVVADGIIKLYQHKEDIRGLTFVYEPKQLRFFTARFDFI,soluble
14,MSLHDLLLRNVRPMAGEACDIMIRNGKITGFGKFDAEPGLPVEDGKGAIAVPGLIDAHTHLDKTTWGMPWHVNNRAAILRERIDFERENRVQIGIDPHRQSMRHAIGLAANGGTHIRSHVDIDPTHGLKLVEGIWETREKLDGIIDIEVVAFPQSGVMVMPGTVELLDEALKQGCEVLGGIDPCGIDRDPKGQLDILFQLATKHGVPIDIHLHEAADLGAFTMELIFERIRANGMQGNVAISHAFALGMNDYLRVGRLIDEIARLDVAILTTGAPSASVPSIMRLKEAGVRVGGGCDGIRDTWGPWGQPDMLDRAKIIGMKNGLRSDVELAHVLHVVSRGGADVMGIEDYGMEIGCAADFTLLTGETLAHAVVDITPRPLVVKGGRVTARNGKAIVEAPEGHHHHHH,not soluble
15,MIELKGISQHFRGAGGTDVHALRDVDLSIDKGEIFGIIGRSGAGKSTLVRVINLLNRPTSGTVTVAGQSLTALNADGLRQARRKIGMIFQHFNLLSSRTVYDNVALPLELAGTPRERIREIVLPLLELVGLDAHKDRYPAQISGGQKQRVGIARALASQPDVLLSDEATSALDPETTRSILDLLRKINRELGLTIVLITHQMEVIKQVCDRVAVLDAGRVVELGRVIDVFLKPRHDVTRALIGEVISQELPPSVLARVESRLVAARERGGRDHLFRLAFTGAGVDQPVLAQAIRNYGLDFNILHGHIDEIQGQAFGSLAILASGESADIDNAMHFLREQGVVVEEINHVVLEHHHHHH,not soluble
16,MGSDKIHHHHHHMNELDIIKIISKNLSYSNGVEKGIGDDCAVFKFENQHLVVTTDMMFKSTHFPSILTPFQIGMRVVTANVSDIAAMCAKPLGMVISMGFDNPKKTFIDEMSKGINFISKEYGCPIAGGDTNKAPELTLSGTAFGITDNPIYRGGIIGEDICITGDVGKVNCALKLLEMKDKGILGNIEFEKTMSEFPRIMKKLAEPKARVKEGLLLNKIITSCCDISDGLSKDLNYTGNFEINSKNLLNSVSREVIEFCEKFDMDLLKTVLNSGEEFELLFTTPDFKKAEEKLKDINSVTKIGKVVESGKTVDGISVELEGYVHKW,not soluble
17,MGSDKIHHHHHHMTVTILHEANSIDTDYVKRARLISDKFLELIILPTEQCNFRCTYCYEDFSIGRMQPETIAGIKAILDKRCPNLSYLNLAWFGGEPLVAKNIVLDISEYALSLVSKYPHLHYSSNMTTNGYLLDLNTASALANVGVTKYQISLDGPREIHNQSRIRADGKSTFERIWTNLLAIRDSSLPIYINLRLHFTIDTVKLIDPLLEDIKREFLPDSRFSVYFKSIERLGGTNDASIKIYSESEKNTAIKTLEAKLFGEKLQSPQNATLPDDYVCYASRPNSLVIRANGSVGKCTVALSDERNNIGTLRTDGRLDLIPGRFAPWVRGIQTLDPDVLGCPLVSLPTSDEIATNLQTKALAV,not soluble
18,HFVKSVEDKAISVTLAQGNIEQNLKWDPNYFYSTLAIYQKLITENLGKTDLIILPESALPTLENAITPFFEGLERAAKETKTEIMVGTVFQDTKSGKLLNSIMTAGNPDFPYQPNTQNRYNKHHLVPFGEYVPLESILRPLNSVFNLPMSAFQSGEAVQPSLIAKKRAFSPAICYEIIFGEQVRQNLKQDTDYLLTLSNDAWFGDSIGPWQHLQMARMRALELGKPLIRATNTGISVFVDAQGKVLAQAPQFIETTLTYKIAPAEGKTPYSVLGNMPLYALSLLFLLLHS,not soluble
19,MSLTRQSLQQAAESRRSIYSLNKNLPVGKDEVVQIVEHAVLHTPSSFNSQSARVVVLFGEEHDKVWQFVEDALRAVVPADSFEPTAQKLNLFKAGAATILFYEDQNVVKGLQEQFPAYAANFPVWADQANAMVQYAVWTTLAAVGVGANLQHYNPLPDAAIAKAWNIPENWLLRAQMVIGGIEGAAGEKTFEPVAERLKVFGAEGGSHHHHHH,soluble
20,MTSVSGCGSVSLITNRSAFLGNGLQHRAVFLKPWSSSSLQSRSMVVEAKTKTSSEDRIARHSRIRKKVNGTTERPRLCVFRSNKHLYVQVIDDTKMHTLASASTKQKPISEEFDYTSGPTIEVAKKVGEVIAKSCLEKGITKVAFDRGGYPYHGRIEALAAAAREHGLQF,not soluble
21,MSQTEPPEDLMQYEAMAQDALRGVVKAALKKAAAPGGLPEPHHLYITFKTKAAGVSGPQDLLSKYPDEMTIVLQHQYWDLAPGETFFSVTLKFGGQPKRLSVPYAALTRFYDPSVQFALQFSAPEIIEDEPEPDPEPEDKANQGASGDEGPKIVSLDQFRKKLEHHHHHH,soluble
